The values that follow come from publication PMC4570271, “Resolution of structure of PIP5K1A reveals molecular mechanism for its regulation by dimerization and dishevelled” (Nature Communications, 2015).

This test deals with T1, GST-tagged DIX domain of mouse DVL1 (residues 1-106) with Y17D (mouse, UniProt P51141 1-106, Y17D).
T1 construct: DIX domain of mouse DVL1, residues 1-106, Y17D to eliminate DIX aggregation; A longer construct 1-200 (DIX-L) is named in the methods but tied to no experiment; also called DVL DIX; GST-DVL; source: E. coli, purified (glutathione-agarose beads, size-exclusion chromatography)
T1 sequence (looked up): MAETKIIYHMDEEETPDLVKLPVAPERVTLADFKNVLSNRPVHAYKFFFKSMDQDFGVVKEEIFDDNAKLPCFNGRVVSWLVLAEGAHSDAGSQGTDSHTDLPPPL
Description: pull-down; GST-DIX (or GST) 0.5 μg and His-tagged PIP5K1 0.5 μg in 200 μl of 10 mM HEPES (pH 7.4), 150 mM NaCl, 0.2% Triton, 0.01% SDS, 3 mM dithiothreitol, 10% glycerol; 4 °C overnight; glutathione beads; western blotting. The note with it: both partners purified.

B1: zebrafish PIP5K1A kinase catalytic domain, Y126A mutant (domain or fragment)
chain: MASTGETTYKKTTSSALKGAIQLGITHSVGSLSQKPERDVLMQDFEVVESIFFPSQGSSSTPGHHHGDFKFKTYAPIAFRAFREMFGIRPDDYLYSLCNEPLIELSNPGASGSLFYVSSDDEFIIKTVQHKEAEFLQTLLPGYFMNLNQNMRTLLPKFYGLYCVQADGKNIRIVVMNNLLPRAVPMHLKFDLKGSTYKRRASPKERSKGVPTYKDLDFMQDMPEGILLENDHYTALSRTMQRDCRVLQSFKIMDYSLLVGIHILHRAGEEASTAVPDTQKKGQGQKPLYCTAIESIQGESKSKTSPQPYESMGGIPAFNSKGERLLVFIGIIDILQSYRLVKKLEHSWKALLHDGDTVSVHRPSFYADRFQKFMCSTVFRKSQLKTLE
notes: kinase catalytic domain of zebrafish PIP5K1Aα, residues 49-431; C-terminal 'Leu-Glu' that precedes the His6 tag; source: E. coli BL21-CodonPlus(DE3)-RIL, purified in the same way as the wild-type protein; not shown: His6, C-terminal, kept
B1: the “reduction of the interaction against the wild type” value was above 70%.

B2: zebrafish PIP5K1A kinase catalytic domain, K426A mutant (domain or fragment)
chain: MASTGETTYKKTTSSALKGAIQLGITHSVGSLSQKPERDVLMQDFEVVESIFFPSQGSSSTPGHHHGDFKFKTYAPIAFRYFREMFGIRPDDYLYSLCNEPLIELSNPGASGSLFYVSSDDEFIIKTVQHKEAEFLQTLLPGYFMNLNQNMRTLLPKFYGLYCVQADGKNIRIVVMNNLLPRAVPMHLKFDLKGSTYKRRASPKERSKGVPTYKDLDFMQDMPEGILLENDHYTALSRTMQRDCRVLQSFKIMDYSLLVGIHILHRAGEEASTAVPDTQKKGQGQKPLYCTAIESIQGESKSKTSPQPYESMGGIPAFNSKGERLLVFIGIIDILQSYRLVKKLEHSWKALLHDGDTVSVHRPSFYADRFQKFMCSTVFRASQLKTLE
notes: as for B1
As for B2, the “change in the interaction against the wild type” value (“change in the interaction” below) was at most 20%.

B3: zebrafish PIP5K1A kinase catalytic domain, L150A mutant (domain or fragment)
chain: MASTGETTYKKTTSSALKGAIQLGITHSVGSLSQKPERDVLMQDFEVVESIFFPSQGSSSTPGHHHGDFKFKTYAPIAFRYFREMFGIRPDDYLYSLCNEPLIEASNPGASGSLFYVSSDDEFIIKTVQHKEAEFLQTLLPGYFMNLNQNMRTLLPKFYGLYCVQADGKNIRIVVMNNLLPRAVPMHLKFDLKGSTYKRRASPKERSKGVPTYKDLDFMQDMPEGILLENDHYTALSRTMQRDCRVLQSFKIMDYSLLVGIHILHRAGEEASTAVPDTQKKGQGQKPLYCTAIESIQGESKSKTSPQPYESMGGIPAFNSKGERLLVFIGIIDILQSYRLVKKLEHSWKALLHDGDTVSVHRPSFYADRFQKFMCSTVFRKSQLKTLE
notes: kinase catalytic domain of zebrafish PIP5K1Aα, residues 49-431; C-terminal 'Leu-Glu' that precedes the His6 tag; also called Leu-150 to Ala; source: E. coli BL21-CodonPlus(DE3)-RIL, purified in the same way as the wild-type protein; not shown: His6, C-terminal, kept
As for B3, the “change in the interaction” value was at most 20%.

B4: zebrafish PIP5K1A kinase catalytic domain, Q194A mutant (domain or fragment)
chain: MASTGETTYKKTTSSALKGAIQLGITHSVGSLSQKPERDVLMQDFEVVESIFFPSQGSSSTPGHHHGDFKFKTYAPIAFRYFREMFGIRPDDYLYSLCNEPLIELSNPGASGSLFYVSSDDEFIIKTVQHKEAEFLQTLLPGYFMNLNANMRTLLPKFYGLYCVQADGKNIRIVVMNNLLPRAVPMHLKFDLKGSTYKRRASPKERSKGVPTYKDLDFMQDMPEGILLENDHYTALSRTMQRDCRVLQSFKIMDYSLLVGIHILHRAGEEASTAVPDTQKKGQGQKPLYCTAIESIQGESKSKTSPQPYESMGGIPAFNSKGERLLVFIGIIDILQSYRLVKKLEHSWKALLHDGDTVSVHRPSFYADRFQKFMCSTVFRKSQLKTLE
notes: kinase catalytic domain of zebrafish PIP5K1Aα, residues 49-431; C-terminal 'Leu-Glu' that precedes the His6 tag; also called Q194 mutant; source: E. coli BL21-CodonPlus(DE3)-RIL, purified in the same way as the wild-type protein; not shown: His6, C-terminal, kept
In the case of B4, the “change in the interaction” value was at most 20%.

B5: zebrafish PIP5K1A kinase catalytic domain, E149A mutant (domain or fragment)
chain: MASTGETTYKKTTSSALKGAIQLGITHSVGSLSQKPERDVLMQDFEVVESIFFPSQGSSSTPGHHHGDFKFKTYAPIAFRYFREMFGIRPDDYLYSLCNEPLIALSNPGASGSLFYVSSDDEFIIKTVQHKEAEFLQTLLPGYFMNLNQNMRTLLPKFYGLYCVQADGKNIRIVVMNNLLPRAVPMHLKFDLKGSTYKRRASPKERSKGVPTYKDLDFMQDMPEGILLENDHYTALSRTMQRDCRVLQSFKIMDYSLLVGIHILHRAGEEASTAVPDTQKKGQGQKPLYCTAIESIQGESKSKTSPQPYESMGGIPAFNSKGERLLVFIGIIDILQSYRLVKKLEHSWKALLHDGDTVSVHRPSFYADRFQKFMCSTVFRKSQLKTLE
notes: as for B1
Regarding B5, the “change in the interaction” value was at most 20%.

B6: zebrafish PIP5K1A kinase catalytic domain, S78A mutant (domain or fragment)
chain: MASTGETTYKKTTSSALKGAIQLGITHSVGSLAQKPERDVLMQDFEVVESIFFPSQGSSSTPGHHHGDFKFKTYAPIAFRYFREMFGIRPDDYLYSLCNEPLIELSNPGASGSLFYVSSDDEFIIKTVQHKEAEFLQTLLPGYFMNLNQNMRTLLPKFYGLYCVQADGKNIRIVVMNNLLPRAVPMHLKFDLKGSTYKRRASPKERSKGVPTYKDLDFMQDMPEGILLENDHYTALSRTMQRDCRVLQSFKIMDYSLLVGIHILHRAGEEASTAVPDTQKKGQGQKPLYCTAIESIQGESKSKTSPQPYESMGGIPAFNSKGERLLVFIGIIDILQSYRLVKKLEHSWKALLHDGDTVSVHRPSFYADRFQKFMCSTVFRKSQLKTLE
notes: as for B1
With B6, the “reduction of the interaction against the wild type” value was above 70%.
